Assay results as given in publication PMC9267027.
Where “and” joins values, the source holds several entries; their conditions need not be identical. Identical values can stand only once.

Molecular target: Amy117, neopullulanase (NPase) from B. pseudofirmus 703 (B. pseudofirmus 703)
Experiment: AUC; sedimentation velocity, 50 mM Na2HPO4-NaH2PO4 buffer pH 7.0, 20 °C, 38,000 rpm, absorbance at 280 nm, c(s) model in SEDFIT; oligomeric state

percent as a tetramer: 3.3% | percent in the dimerized form: 68.7% | percent in the monomeric form: 24.3% | stoichiometry N: 2 and 4
Substance: Amy117, neopullulanase (NPase) from B. pseudofirmus 703 (enzyme)
